US20120208867

Molecular target: T1, His-tagged HMGB1 (UniProt P09429)
T1 sequence: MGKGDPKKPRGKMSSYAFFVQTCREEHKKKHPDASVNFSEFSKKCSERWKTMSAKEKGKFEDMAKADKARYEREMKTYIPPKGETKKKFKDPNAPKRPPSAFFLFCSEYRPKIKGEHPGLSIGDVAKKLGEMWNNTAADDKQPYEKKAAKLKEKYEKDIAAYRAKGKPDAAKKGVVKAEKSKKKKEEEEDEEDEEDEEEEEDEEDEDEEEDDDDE
Test: SPR
Conditions: comparative pool; no signal increase in FIG. 1; unit M inferred

GGGACGCUCACGUACGCUCANNNNNNNNNNNNNNNNNNNNNNNNNNNNNNNNNNNNNNNNUCAGUGCCUGGACGUGCAGU [40N random RNA pool]
Kd: 1040 nM
